Source: article PMC5387809, “The Combination of Computational and Biosensing Technologies for Selecting Aptamer against Prostate Specific Antigen”
Residue numbers refer to the chain shown, from its start.

B1: PSAG212 (ssDNA)
DNA: TTTTTACGCACCGGGTACGTTTTTTGGCCTTT
modifications: 5' C6 thiol
B2: PSAG28 (ssDNA)
DNA: TTTTTAATATCCGGGGAACGTCGTGGCCCTTT
modifications: 5' C6 thiol
B3: PSAG24 (ssDNA)
DNA: TTTTTAATATCCGGGTTCCCGGTTGTCTCTTT
modifications: 5' C6 thiol
B4: PSAG118 (ssDNA)
DNA: TTTTTCCGCACAACTTGCCATCAAATATCTTT
modifications: 5' C6 thiol
B5: PSAG112 (ssDNA)
DNA: TTTTTACTTAATGCGGAACGTCGTGGCCCTTT
modifications: 5' C6 thiol
B6: PSAG114 (ssDNA)
DNA: TTTTTCCGCACCGGGTACGGTCGTGGCCCTTT
modifications: 5' C6 thiol
B7: PSAG15 (ssDNA)
DNA: TTTTTCTGGAATGATTTCCCGGTTGTCTCTTT
modifications: 5' C6 thiol
B8: PSAG11 (ssDNA)
DNA: TTTTTCTGTTGCCCGGAACGTCGTGGCCCTTT
modifications: 5' C6 thiol
B9: PSAG119 (ssDNA)
DNA: B1 DNA
modifications: 5' C6 thiol
B10: PSAG17 (ssDNA)
DNA: B1 DNA with A6C, C7T, C9G, A10T
modifications: 5' C6 thiol
B11: PSAG117 (ssDNA)
DNA: B1 DNA with C7A, G8T, C9A, A10T
modifications: 5' C6 thiol

biological target: T1, prostate specific antigen (PSA) (human, UniProt P07288 25-261); assay: SPR; ka 3.11e3 M-1s-1, kd 11.23e-3 s-1; PBS (10 mM Na2HPO4, 137 mM NaCl, 2 mM KH2PO4, 2.7 mM KCl), pH 7.4; SPR at 25 C, 50 ul/min; PSA 2 ng/ml; DNA/PEG thiol SAM on gold; QCM temperature not stated; conditions: protein: commercial; hairpin (predicted)
T1 sequence (P07288 25-261): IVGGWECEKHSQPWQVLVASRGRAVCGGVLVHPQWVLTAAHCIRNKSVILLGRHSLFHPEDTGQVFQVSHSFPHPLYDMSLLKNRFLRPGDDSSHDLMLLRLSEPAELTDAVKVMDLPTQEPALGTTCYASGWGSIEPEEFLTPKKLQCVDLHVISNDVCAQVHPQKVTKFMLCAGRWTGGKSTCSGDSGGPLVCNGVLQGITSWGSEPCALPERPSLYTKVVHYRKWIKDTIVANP

Row | Binder | Ka
1 | B1 | 0.28 ± 0.03 10^6 M-1

biological target: T1, prostate specific antigen (PSA); assay: QCM; 2 ng/ml PSA injected; PBS (10 mM Na2HPO4, 137 mM NaCl, 2 mM KH2PO4, 2.7 mM KCl), pH 7.4; SPR at 25 C, 50 ul/min; PSA 2 ng/ml; DNA/PEG thiol SAM on gold; QCM temperature not stated; conditions: protein: commercial; hairpin (predicted)

Row | Binder | binding signal
2 | B2 | 166 ± 6.7 Hz (frequency drop)
3 | B3 | 131 ± 4.9 Hz (frequency drop)
4 | B1 | 59.5 ± 5.8 Hz (frequency drop)

biological target: T1, prostate specific antigen (PSA); assay: SPR; ka 3.37e3 M-1s-1, kd 12.34e-3 s-1; PBS (10 mM Na2HPO4, 137 mM NaCl, 2 mM KH2PO4, 2.7 mM KCl), pH 7.4; SPR at 25 C, 50 ul/min; PSA 2 ng/ml; DNA/PEG thiol SAM on gold; QCM temperature not stated; conditions: protein: commercial; hairpin (predicted)

Row | Binder | Ka
5 | B3 | 0.27 ± 0.04 10^6 M-1

biological target: T1, prostate specific antigen (PSA); assay: QCM; 2 ng/ml PSA injected; PBS (10 mM Na2HPO4, 137 mM NaCl, 2 mM KH2PO4, 2.7 mM KCl), pH 7.4; SPR at 25 C, 50 ul/min; PSA 2 ng/ml; DNA/PEG thiol SAM on gold; QCM temperature not stated; conditions: protein: commercial; hairpin (predicted); remark: another data set of the same source

Row | Binder | binding signal
6 | B4 | 24.9 ± 3.9 Hz (frequency drop)
7 | B5 | 71.7 ± 1.3 Hz (frequency drop)
8 | B6 | 63 ± 5.4 Hz (frequency drop)
9 | B7 | 108 ± 14 Hz (frequency drop)
10 | B8 | 19.2 ± 1.7 Hz (frequency drop)
11 | B9 | 91.3 ± 9.7 Hz (frequency drop)
12 | B10 | 37.3 ± 1.9 Hz (frequency drop)
13 | B11 | 82.9 ± 5.8 Hz (frequency drop)
